Measured values: article PMC11578449 (PLOS Pathogens, 2024)

Columns and labels:
[1] = target: human dipeptidyl peptidase 4 ectodomain (hDPP4, residues 39-766) (human) (UniProt P27487); experiment: SPR; BIAcore T200, 25 °C; […]; 1:1 Langmuir binding model
[2] = target: T1, human dipeptidyl peptidase 4 ectodomain (hDPP4, residues 39-766) (human, UniProt P27487 39-766); experiment: as above; settings: both partners purified
T1 construct: also called human DPP4
T1 sequence (P27487 39-766): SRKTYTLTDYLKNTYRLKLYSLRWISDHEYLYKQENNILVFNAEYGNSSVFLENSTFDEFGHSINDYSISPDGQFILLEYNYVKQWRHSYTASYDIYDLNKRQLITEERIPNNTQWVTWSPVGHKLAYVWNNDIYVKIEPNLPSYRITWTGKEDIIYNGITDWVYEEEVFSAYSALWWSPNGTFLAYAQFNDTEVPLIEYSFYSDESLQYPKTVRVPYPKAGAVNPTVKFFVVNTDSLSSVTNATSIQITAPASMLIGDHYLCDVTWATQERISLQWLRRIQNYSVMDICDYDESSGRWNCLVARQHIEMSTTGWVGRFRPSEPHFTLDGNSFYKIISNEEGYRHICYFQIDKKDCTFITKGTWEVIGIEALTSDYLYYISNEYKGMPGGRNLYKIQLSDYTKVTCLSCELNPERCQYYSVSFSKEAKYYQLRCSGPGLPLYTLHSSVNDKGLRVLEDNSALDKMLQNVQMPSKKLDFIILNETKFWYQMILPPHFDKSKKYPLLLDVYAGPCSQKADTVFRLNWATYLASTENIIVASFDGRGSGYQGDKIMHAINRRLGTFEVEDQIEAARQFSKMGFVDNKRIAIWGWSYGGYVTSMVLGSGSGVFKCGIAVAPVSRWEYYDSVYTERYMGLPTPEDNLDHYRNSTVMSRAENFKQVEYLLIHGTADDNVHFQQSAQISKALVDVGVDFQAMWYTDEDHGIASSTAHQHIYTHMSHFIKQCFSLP

Chain of human dipeptidyl peptidase 4 ectodomain (hDPP4, residues 39-766) (human) (P27487 39-766): as above

MjHKU4r-CoV-1 spike receptor binding domain (residues 375-614) (domain or fragment)
koff [1]: 0.00368 s⁻¹ | kon [1]: 17000 M⁻¹ s⁻¹

B1: Ty-BatCoV-HKU4 spike receptor binding domain (residues E372-Y611) (domain or fragment)
chain: EASATGTFIEQPNATECDFSPMLTGVAPQVYNFKRLVFSNCNYNLTKLLSLFAVDEFSCNGISPDSIARGCYSTLTVDYFAYPLSMKSYIRPGSAGNIPLYNYKQSFANPTCRVMASVLANVTITKPHAYGYISKCSRLTGANQDVETPLYINPGEYSICRDFSPGGFSEDGQVFKRTLTQFEGGGLLIGVGTRVPMTDNLQMSFIISVQYGTGTDSVCPMLDLGDSLTITNRLGKCVDY
koff [2]: 0.00684 s⁻¹ | kon [2]: 1070 M⁻¹ s⁻¹
